{
  "source": "patent CN112500478A",
  "binders": {"B1": {"name": "抗非洲猪瘟病毒的ScFv抗体VH-VLλ6 (scFv)", "scFv": "MEVKLVESGGGLVQPGGSLRLSCVGSGVTVTSYTVSWVRQAPGKGLEWLAGNGSSSKTTVDSDSVRGRFFISRDNSQNTAYLQMNSLRTEDTARYYCVQTIDSDCTSRLWGPGVEVVVGGGGSGGMSQTVIQEPAMSVSPGGTVTLTCAFSSATVTISNYPGWYQQTPRQPPRQLIYGLSSRPTGVPSRFSGAISGNKATLTITGAQAEDEADYFCALYNAGSRYNYMFGGGTHLTVL"}},
  "molecular_target": "非洲猪瘟病毒(African swine fever Virus, ASFV)全病毒 / 灭活非洲猪瘟病毒抗原",
  "data": [
    {"binder": "B1", "values": [
      {"measurement": "OD450nm", "value": 1.15, "unit": "OD450nm"}
    ]}
  ]
}
